Assay results published in article doi:10.1101/2025.07.01.662498, “Automodification of N-terminal serine residues in PARP2 impacts PARP2 release from DNA damage sites”.

Molecular target: PARP2 WT (human, UniProt Q9UGN5 1-583)
Test: fluorescence polarization; HPF1 not mentioned for this value; 10 mM HEPES pH 8.0, 150 mM NaCl, 0.1 mg/ml BSA, 0.1 mM TCEP, 0.1 mM EDTA, 25 C (FP)
Conditions: protein: recombinant; tags: His6-TEV, tag cleaved; nicked dumbbell: two hairpins with TTTT loops, one strand

PARP2 WT, sequence (Q9UGN5 whole entry): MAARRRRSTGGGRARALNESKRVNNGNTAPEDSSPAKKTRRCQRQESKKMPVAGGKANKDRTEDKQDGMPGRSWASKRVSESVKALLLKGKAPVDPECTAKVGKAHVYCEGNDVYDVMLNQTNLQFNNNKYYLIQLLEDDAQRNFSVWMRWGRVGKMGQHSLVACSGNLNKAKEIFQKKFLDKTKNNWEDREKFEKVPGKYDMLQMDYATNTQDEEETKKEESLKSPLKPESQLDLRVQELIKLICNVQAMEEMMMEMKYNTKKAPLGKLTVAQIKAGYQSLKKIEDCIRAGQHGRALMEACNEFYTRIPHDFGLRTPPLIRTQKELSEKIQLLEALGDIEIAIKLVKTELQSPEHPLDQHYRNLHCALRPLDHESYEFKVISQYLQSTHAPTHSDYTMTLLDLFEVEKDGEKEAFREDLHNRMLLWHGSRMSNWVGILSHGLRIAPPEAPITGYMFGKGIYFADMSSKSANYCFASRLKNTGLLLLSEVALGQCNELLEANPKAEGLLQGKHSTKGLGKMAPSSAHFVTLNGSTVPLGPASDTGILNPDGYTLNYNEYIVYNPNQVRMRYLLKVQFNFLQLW

Binder: GGAAGTCTTTTGACTTCCTCGAAGCTTTTGCTTCGA (structured_DNA, 5'-phosphate) [fluorescein-labelled nicked dumbbell DNA, 5'-phosphate]
- Kd: 4.8 ± 2.9 nM
